Measurements: patent US20220153847A1 (Chugai, published 2022)

T1: HLA-DQ2.5 on HLA-DQ2.5-positive PBMC B cells (human, UniProt P01909 24-254; P01920 33-261)
T1 construct: whole, on cells; also called HLA-DQ2.5+ PBMC B cell
T1 MHC II alpha: not shown
T1 MHC II beta: not shown


How the values were obtained:
[1] = biological target: T2, HLA-DQ2.5/CLIP peptide complex on Ba/F3 cells (human); assay: FACS, Ba/F3 cells; IC17=0%, DQN0139bb//IC17=100%;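 also: flow cytometry binding of anti-HLA-DQ antibodies at 5 µg/mL, incubated 30 min at room temperature with Ba/F3 lines presenting HLA-DQ/peptide complexes; antibody tested at 5 microgram/mL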
T2 construct: whole, on cells; also called Ba/F3-HLA-DQ2.5/CLIP
T2 sequence (P04233 96-124, chain 2 of 2, other chains not shown): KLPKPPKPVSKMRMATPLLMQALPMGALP

[2] = biological target: T3, HLA-DQ2.5/alpha 1 gliadin peptide complex on Ba/F3 cells (human); assay: FACS, Ba/F3 cells; IC17=0%, DQN0139bb//IC17=100%;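 also: flow cytometry binding of anti-HLA-DQ antibodies at 5 µg/mL, incubated 30 min at room temperature with Ba/F3 lines presenting HLA-DQ/peptide complexes; antibody tested at 5 microgram/mL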
T3 construct: whole, on cells; also called Ba/F3-HLA-DQ2.5/alpha 1 gliadin; HLA-DQ2.5/a1 gliadin

[3] = biological target: T4, HLA-DQ2.5/alpha 2 gliadin peptide complex on Ba/F3 cells (human); assay: FACS, Ba/F3 cells; IC17=0%, DQN0139bb//IC17=100%;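 also: flow cytometry binding of anti-HLA-DQ antibodies at 5 µg/mL, incubated 30 min at room temperature with Ba/F3 lines presenting HLA-DQ/peptide complexes; antibody tested at 5 microgram/mL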
T4 construct: whole, on cells; also called Ba/F3-HLA-DQ2.5/alpha 2 gliadin; HLA-DQ2.5/a2 gliadin

[4] = biological target: T5, HLA-DQ2.5/gamma 1 gliadin peptide complex on Ba/F3 cells (human); assay: FACS, Ba/F3 cells; IC17=0%, DQN0139bb//IC17=100%;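 also: flow cytometry binding of anti-HLA-DQ antibodies at 5 µg/mL, incubated 30 min at room temperature with Ba/F3 lines presenting HLA-DQ/peptide complexes; antibody tested at 5 microgram/mL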
T5 construct: whole, on cells; also called Ba/F3-HLA-DQ2.5/gamma 1 gliadin; HLA-DQ2.5/g1 gliadin

[5] = biological target: T6, HLA-DQ2.5/gamma 2 gliadin peptide complex on Ba/F3 cells (human); assay: FACS, Ba/F3 cells; IC17=0%, DQN0139bb//IC17=100%
T6 construct: whole, on cells; also called Ba/F3-HLA-DQ2.5/gamma 2 gliadin; HLA-DQ2.5/g2 gliadin

[6] = biological target: T7, HLA-DQ2.5/omega 1 gliadin peptide complex on Ba/F3 cells (human); assay: FACS, Ba/F3 cells; IC17=0%, DQN0139bb//IC17=100%
T7 construct: whole, on cells; also called Ba/F3-HLA-DQ2.5/omega 1 gliadin; HLA-DQ2.5/w1 gliadin

[7] = biological target: T8, HLA-DQ2.5/omega 2 gliadin peptide complex on Ba/F3 cells (human); assay: FACS, Ba/F3 cells; IC17=0%, DQN0139bb//IC17=100%
T8 construct: whole, on cells; also called Ba/F3-HLA-DQ2.5/omega 2 gliadin; HLA-DQ2.5/w2 gliadin

[8] = biological target: T9, HLA-DQ2.5/BC hordein peptide complex on Ba/F3 cells (human); assay: FACS, Ba/F3 cells; IC17=0%, DQN0139bb//IC17=100%
T9 construct: whole, on cells; also called Ba/F3-HLA-DQ2.5/BC hordein

[9] = biological target: T10, HLA-DQ2.5/alpha 3 gliadin peptide complex on Ba/F3 cells (human); assay: FACS, Ba/F3 cells; IC17=0%, DQN0139bb//IC17=100%
T10 construct: whole, on cells; also called Ba/F3-HLA-DQ2.5/alpha 3 gliadin; HLA-DQ2.5/a3 gliadin

[10] = biological target: T11, HLA-DQ2.5/alpha 1b gliadin peptide complex on Ba/F3 cells (human); assay: FACS, Ba/F3 cells; IC17=0%, DQN0139bb//IC17=100%
T11 construct: whole, on cells; also called Ba/F3-HLA-DQ2.5/alpha 1b gliadin; HLA-DQ2.5/a1b gliadin

[11] = biological target: T12, HLA-DQ2.5/gamma 4b gliadin peptide complex on Ba/F3 cells (human); assay: FACS, Ba/F3 cells; IC17=0%, DQN0139bb//IC17=100%
T12 construct: whole, on cells; also called Ba/F3-HLA-DQ2.5/gamma 4b gliadin; HLA-DQ2.5/g4b gliadin

[12] = biological target: T13, HLA-DQ2.5/avenin 1 peptide complex on Ba/F3 cells (human); assay: FACS, Ba/F3 cells; IC17=0%, DQN0139bb//IC17=100%
T13 construct: whole, on cells; also called Ba/F3-HLA-DQ2.5/avenin 1

[13] = biological target: T14, HLA-DQ2.5/avenin 2 peptide complex on Ba/F3 cells (human); assay: FACS, Ba/F3 cells; IC17=0%, DQN0139bb//IC17=100%
T14 construct: whole, on cells; also called Ba/F3-HLA-DQ2.5/avenin 2

[14] = biological target: T15, HLA-DQ2.5/avenin 3 peptide complex on Ba/F3 cells (human); assay: FACS, Ba/F3 cells; IC17=0%, DQN0139bb//IC17=100%
T15 construct: whole, on cells; also called Ba/F3-HLA-DQ2.5/avenin 3

[15] = biological target: T16, HLA-DQ2.5/hordein 1 peptide complex on Ba/F3 cells (human); assay: FACS, Ba/F3 cells; IC17=0%, DQN0139bb//IC17=100%
T16 construct: whole, on cells; also called Ba/F3-HLA-DQ2.5/hordein 1

[16] = biological target: T17, HLA-DQ2.5/hordein 2 peptide complex on Ba/F3 cells (human); assay: FACS, Ba/F3 cells; IC17=0%, DQN0139bb//IC17=100%
T17 construct: whole, on cells; also called Ba/F3-HLA-DQ2.5/hordein 2

[17] = biological target: T18, HLA-DQ2.5/secalin 1 peptide complex on Ba/F3 cells (human); assay: FACS, Ba/F3 cells; IC17=0%, DQN0139bb//IC17=100%
T18 construct: whole, on cells; also called Ba/F3-HLA-DQ2.5/secalin 1

[18] = biological target: T19, HLA-DQ2.5/secalin 2 peptide complex on Ba/F3 cells (human); assay: FACS, Ba/F3 cells; IC17=0%, DQN0139bb//IC17=100%
T19 construct: whole, on cells; also called Ba/F3-HLA-DQ2.5/secalin 2

[19] = biological target: T20, HLA-DQ2.5/14mer 1 peptide complex on Ba/F3 cells (human); assay: FACS, Ba/F3 cells; IC17=0%, DQN0139bb//IC17=100%
T20 construct: whole, on cells; also called Ba/F3-HLA-DQ2.5/14mer 1

[20] = biological target: T21, HLA-DQ2.5/26mer gliadin peptide complex on Ba/F3 cells (human); assay: FACS, Ba/F3 cells; IC17=0%, DQN0139bb//IC17=100%
T21 construct: whole, on cells; also called Ba/F3-HLA-DQ2.5/26mer gliadin

[21] = biological target: T1, HLA-DQ2.5 on HLA-DQ2.5-positive PBMC B …; assay: FACS, PBMC B cells; IC17=0%, DQN0139bb//IC17=100%

Row | Binder | % MFI [1] [%] | % MFI [2] [%] | % MFI [3] [%] | % MFI [4] [%] | % MFI [5] [%] | % MFI [6] [%] | % MFI [7] [%] | % MFI [8] [%] | % MFI [9] [%] | % MFI [10] [%] | % MFI [11] [%] | % MFI [12] [%] | % MFI [13] [%] | % MFI [14] [%] | % MFI [15] [%] | % MFI [16] [%] | % MFI [17] [%] | % MFI [18] [%] | % MFI [19] [%] | % MFI [20] [%] | further results
1 | DQN0344xx//DQN0385ee (bispecific antibody, human IgG1, kappa) heavy 1: QSLEESGGGLVKPGGTLTLTCTASGFSFSSSYWMCWVRQAPGKGLEWVACVYGGSDTTYYASWTKGRFTISKGSSTTVALQVTSLTAADTATYFCARDPLNYYYYGELNLWGPGTLVTVSSASTKGPSVFPLAPSSKSTSGGTAALGCLVKDYFPEPVTVSWNSGALTSGVHTFPAVLQSSGLYSLSSVVTVPSSSLGTQTYICNVNHKPSNTKVDKRVEPKSCDKTHTCPPCPAPELRRGPSVFLFPPKPKDTLMISRTPEVTCVVVDVSHEDPEVKFNWYVDGVEVHNAKTKPREEQYNSTYRVVSVLTVLHQDWLNGKEYKCKVSNKALPAPIEKTISKAKGQPREPQVYTLPPSREEMTKNQVSLTCLVKGFYPSDIAVEWESNGQPENNYKTTPPYLDSDGSFFLYSKLTVDKSRWQQGNVFSCSVMHEALHNHYTQESLSLSP light 1: AVVLTQTASPVSAAVGGTVTIRCQATENIYSGLAWYQQKPGQPPKVLIYYVSTLASGVPSRFKGSGSGTEYTLTISGVQCDDAATYYCQTYHDISNVTFGGGTKVEIKRTVAAPSVFIFPPSDEQLKSGTASVVCLLNNFYPREAKVQWKVDNALQSGNSQESVTEQDSKDCTYSLSSTLTLSKADYEKHKVYACEVTHQGLSSPVTKSFNRGEC heavy 2: QEQLEESGGDLVKPGASLTLTCTASGFSFYSSYWICWVRQAPGKGLEWIACIDTGSGSIDYASWVNGRFTISKTSSTTVTLQMTSLTVADTATYFCARDIGIDYNFWGPGTLVTVSSASTKGPSVFPLAPSSKSTSGGTAALGCLVKDYFPEPVTVSWNSGALTSGVHTFPAVLQSSGLYSLSSVVTVPSSSLGTQTYICNVNHKPSNTKVDKRVEPKSCDKTHTCPPCPAPELRRGPSVFLFPPKPKDTLMISRTPEVTCVVVDVSHEDPEVKFNWYVDGVEVHNAKTKPREEQYNSTYRVVSVLTVLHQDWLNGKEYKCKVSNKALPAPIEKTISKAKGQPREPQVYTLPPSRKEMTKNQVSLTCLVKGFYPSDIAVEWESNGQPENNYKTTPPYLDSDGSFFLYSKLTVDKSRWQQGNVFSCSVMHEALHNHYTQKSLSLSP light 2: AFELTQTPSFVEAAVGGTVTIKCQATQSISSYLNWYQQKPGQPPKLLIYYASTLASGVPSRFKGSGSGTEFSLTISGVECADAATYYCHYGISYVSFGGGTKVEIKRTVAAPSVFIFPPSDEQLKSGTASVVCLLNNFYPREAKVQWKVDNALQSGNSQESVTEQDSKDCTYSLSSTLTLSKADYEKHKVYACEVTHQGLSSPVTKSFNRGEC | 1.8 | 58.1 | 52.3 | 29.4 | 4.6 | 40 | 71.5 | 63.5 | 36.4 | 61.9 | 31.1 | 29.1 | 26.6 | 15.6 | 28 | 92.2 | 33.6 | 43.5 | 27.6 | 61.8 | % MFI [21]: 0.4%
2 | DQN0385ee//IC17 (bispecific antibody, human IgG1, kappa) heavy 1: QEQLEESGGDLVKPGASLTLTCTASGFSFYSSYWICWVRQAPGKGLEWIACIDTGSGSIDYASWVNGRFTISKTSSTTVTLQMTSLTVADTATYFCARDIGIDYNFWGPGTLVTVSSASTKGPSVFPLAPSSKSTSGGTAALGCLVKDYFPEPVTVSWNSGALTSGVHTFPAVLQSSGLYSLSSVVTVPSSSLGTQTYICNVNHKPSNTKVDKRVEPKSCDKTHTCPPCPAPELRRGPSVFLFPPKPKDTLMISRTPEVTCVVVDVSHEDPEVKFNWYVDGVEVHNAKTKPREEQYNSTYRVVSVLTVLHQDWLNGKEYKCKVSNKALPAPIEKTISKAKGQPREPQVYTLPPSREEMTKNQVSLTCLVKGFYPSDIAVEWESNGQPENNYKTTPPYLDSDGSFFLYSKLTVDKSRWQQGNVFSCSVMHEALHNHYTQESLSLSP light 1: AFELTQTPSFVEAAVGGTVTIKCQATQSISSYLNWYQQKPGQPPKLLIYYASTLASGVPSRFKGSGSGTEFSLTISGVECADAATYYCHYGISYVSFGGGTKVEIKRTVAAPSVFIFPPSDEQLKSGTASVVCLLNNFYPREAKVQWKVDNALQSGNSQESVTEQDSKDCTYSLSSTLTLSKADYEKHKVYACEVTHQGLSSPVTKSFNRGEC heavy 2: QVQLQQSGPQLVRPGASVKISCKASGYSFTSYWMHWVNQRPGQGLEWIGMIDPSYSETRLNQKFKDKATLTVDKSSSTAYMQLSSPTSEDSAVYYCALYGNYFDYWGQGTTLTVSSASTKGPSVFPLAPSSKSTSGGTAALGCLVKDYFPEPVTVSWNSGALTSGVHTFPAVLQSSGLYSLSSVVTVPSSSLGTQTYICNVNHKPSNTKVDKRVEPKSCDKTHTCPPCPAPELRRGPSVFLFPPKPKDTLMISRTPEVTCVVVDVSHEDPEVKFNWYVDGVEVHNAKTKPREEQYNSTYRVVSVLTVLHQDWLNGKEYKCKVSNKALPAPIEKTISKAKGQPREPQVYTLPPSRKEMTKNQVSLTCLVKGFYPSDIAVEWESNGQPENNYKTTPPYLDSDGSFFLYSKLTVDKSRWQQGNVFSCSVMHEALHNHYTQKSLSLSP light 2: DIQMTQSSSSFSVSLGDRVTITCKASEDIYNRLAWYQQKPGNAPRLLISGATSLETGVPSRFSGSGSGKDYTLSITSLQTEDVATYYCQQYWSTPYTFGGGTKLEVKRTVAAPSVFIFPPSDEQLKSGTASVVCLLNNFYPREAKVQWKVDNALQSGNSQESVTEQDSKDSTYSLSSTLTLSKADYEKHKVYACEVTHQGLSSPVTKSFNRGEC | 1.3 | 6 | 85.6 | 26 | 3.4 | 17.2 | 75.2 | 68.1 | 20.9 | 19.2 | 32.4 | 4 | 8.3 | 0.2 | 24.7 | 98.3 | 11.8 | 34.4 | 23.3 | 70.5 | % MFI [21]: 0.3%
